Assay results from article PMC8699698, “Oligomeric States and Hydrodynamic Properties of Lysyl Oxidase-Like 2” (Biomolecules, 2021).
Substitutions are numbered along the chain they refer to. In names and notes the source's numbering stands. Several values for one entry are separate records, joined by “and”; a condition that tells them apart may be missing. Identical values can stand only once. Each block holds one binder with its values, some of them ahead of it.

Assays:
[1] = molecular target: T1, full-length lysyl oxidase-like 2 (fl-LOXL2), wild type, Q9Y4K0; experiment: native gel or EMSA; Native PAGE, NativePAGE 4 to 16% Bis-Tris gels, 125 V for 2 h; self-association of purified LOXL2 forms; conditions: remark: other sources report otherwise
T1 chain: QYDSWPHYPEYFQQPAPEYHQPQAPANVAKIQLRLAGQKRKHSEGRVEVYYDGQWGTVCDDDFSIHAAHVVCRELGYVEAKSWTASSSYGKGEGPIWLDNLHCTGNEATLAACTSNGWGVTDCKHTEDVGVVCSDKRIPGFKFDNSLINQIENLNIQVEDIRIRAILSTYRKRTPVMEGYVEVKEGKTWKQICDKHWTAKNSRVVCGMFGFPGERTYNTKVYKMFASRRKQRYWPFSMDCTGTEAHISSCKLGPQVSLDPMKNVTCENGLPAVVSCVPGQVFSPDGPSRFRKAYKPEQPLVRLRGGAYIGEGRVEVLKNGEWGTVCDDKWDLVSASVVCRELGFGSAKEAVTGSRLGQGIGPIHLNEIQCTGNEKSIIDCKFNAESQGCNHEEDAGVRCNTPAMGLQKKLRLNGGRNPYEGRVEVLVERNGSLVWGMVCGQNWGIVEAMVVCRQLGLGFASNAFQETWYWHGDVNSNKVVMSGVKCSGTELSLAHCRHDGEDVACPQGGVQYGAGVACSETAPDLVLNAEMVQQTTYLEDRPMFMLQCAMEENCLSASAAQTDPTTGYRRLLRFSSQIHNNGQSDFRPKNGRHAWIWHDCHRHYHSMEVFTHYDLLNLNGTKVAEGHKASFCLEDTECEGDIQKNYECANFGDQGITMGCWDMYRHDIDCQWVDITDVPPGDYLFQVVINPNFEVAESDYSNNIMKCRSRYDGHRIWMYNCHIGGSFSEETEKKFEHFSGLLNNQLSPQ

[2] = molecular target: T1, full-length lysyl oxidase-like 2 …; experiment: AUC; Sedimentation velocity, 20 °C, 40,000 RPM, 50 mM HEPES pH 8.0, fl-LOXL2 at 0.88, 0.30 and 0.088 mg/mL, c(s) model of SEDFIT; self-association; conditions: remark: other sources report otherwise
[3] = molecular target: T1, full-length lysyl oxidase-like 2 …; experiment: SEC-MALS; Superdex 200 10/300, 50 mM Tris pH 8.0, 150 mM NaCl, 0.01% sodium azide; fl-LOXL2 at concentrations from 0.08 to 1.6 uM; self-association; conditions: remark: other sources report otherwise
[4] = molecular target: the molecule itself; experiment: native gel or EMSA; Native PAGE, NativePAGE 4 to 16% Bis-Tris gels, 125 V for 2 h; self-association of purified LOXL2 forms

stoichiometry N [1]: 2 and 4
percent of dimer [2]: 11.6%
percent of monomer [2]: 83.6%
percent of tetramer and pentamer together [2]: 4.7%
stoichiometry N [2]: 4 and 5 and 2
stoichiometry N [3]: 2 and 4
B1: full-length lysyl oxidase-like 2 (fl-LOXL2), wild type, Q9Y4K0 26-774 (enzyme)
chain: T1 chain
modifications: here or on the partner: lysine tyrosylquinone (LTQ) cofactor (precursor residues Lys653 and Tyr689), Cu2+ bound; N-glycans (N-glycosylation sites Asn288, Asn455, Asn644); lysine tyrosylquinone (LTQ) cofactor (precursor residues Lys653 and Tyr689), Cu2+ bound; N-glycans (N-glycosylation sites Asn288, Asn455, Asn644)

B2: K317R-LOXL2, full-length form (furin-cleavage site engineered) (enzyme, UniProt Q9Y4K0 26-774, looked up)
chain: T1 chain with K292R
notes: Lysyl oxidase-like 2 (LOXL2), K317R mutant, the full-length species in the K317R-LOXL2 lane of the native gel; the bands at ~175 and ~340 kDa are ascribed to its full-length form; also called K317R mutant
stoichiometry N [4]: 2 and 4

B3: R314A/R316A/K317Q-LOXL2 (AAQ-LOXL2, a PACE4 cleavage site null mutant), full length (enzyme, UniProt Q9Y4K0 26-774, looked up)
chain: T1 chain with R289A, R291A, K292Q
notes: Lysyl oxidase-like 2 (LOXL2), full-length form with the PACE4 cleavage site mutated (text: R314A/R316A/K317Q); Secreted protein; also called R315A/R316A/K317Q mutant form of LOXL2
stoichiometry N [4]: 2 and 4
